Measurements as given in US7906485B2, “Erythropoietin receptor peptide formulations and uses” (Affymax, Inc., priority 2005, dated 2011).
Bridge positions count the residues as written; N and C are the ends. Square brackets hold non-standard residues; d marks the D form. Ends that are not written are not given here. 1Nal = N[C@@H](Cc1cccc2ccccc12)C(=O)O; Sar = CNCC(=O)O

Key:
[1] = test system: human, bone marrow derived CD34+ cells; test: C/BFU-e assay (erythroid colonies); format: cell-based
Procedure: EPO-R signaling stimulates the differentiation of bone marrow stem cells into proliferating red blood cell precursors. This assay measures the ability of test peptides to stimulate the proliferation and differentiation of red blood cell precursors from primary human bone marrow pluripotent stem cells.
For this assay, serial dilutions of test peptide are made in IMDM medium (Gibco) supplemented with 10% FBS (Hyclone). These serial dilutions, or positive control EPO peptide, are then added to methylcellulose to give a final volume of 1.5 mL. The methylcellulose and peptide mixture is then vortexed thoroughly. Aliquots (100,000 cells/mL) of human, bone marrow derived CD34+ cells (Poietics/Cambrex) are thawed. The thawed cells are gently added to 0.1 mL of 1 mg/ml DNAse (Stem Cells) in a 50 mL tube. Next, 40-50 mL IMDM medium is added gently to cells: the medium is added drop by drop along the side of the 50 mL tube for the first 10 mL, and then the remaining volume of medium is slowly dispensed along the side of the tube. The cells are then spun at 900 rpm for 20 min, and the media removed carefully by gentle aspiration. The cells are resuspended in 1 ml of IMDM medium and the cell density per mL is counted on hemacytometer slide (10 μL aliquot of cell suspension on slide, and cell density is the average count×10,000 cells/ml). The cells are then diluted in IMDM medium to a cell density of 15,000 cells/mL. A 100 μL of diluted cells is then added to each 1.5 mL methyl cellulose plus peptide sample (final cell concentration in assay media is 1000 cells/mL), and the mixture is vortexed. Allow the bubbles in the mixture to disappear, and then aspirate 1 mL using blunt-end needle. Add 0.25 mL aspirated mixture from each sample into each of 4 wells of a 24-well plate (Falcon brand). Incubate the plated mixtures at 37° C. under 5% CO2 in a humid incubator for 14 days. Score for the presence of erythroid colonies using a phase microscope (5×-10× objective, final magnification of 100×). The concentration of test peptide at which the number of formed colonies is 90% of maximum, relative to that observed with the EPO positive control, is recorded as the EC90 [See Table 2: C/BFU-e EC90].

[2] = Phase 1 study in normal healthy volunteers: safety; format: in vivo, human
Description: (§1) Peptide I has been tested in […] in one Phase 1 study. This first-in-human study with Peptide I was a randomized, double-blind, placebo-controlled, single-dose, IV, escalating dose, safety and tolerability trial. The primary objectives of the study were to evaluate the safety and pharmacokinetics of Peptide I, and to establish a pharmacologically active dose (PAD). Cohorts of seven male volunteers were scheduled to receive single doses of Peptide I or placebo in a 5:2 ratio. Cohorts were to be added at increasing dose levels until a PAD, as determined by an increase in hemoglobin from baseline values, was observed, at which point the dose level identified as the PAD would be repeated in another cohort of volunteers.
(§2) The study was initiated in four cohorts were enrolled in a consecutive manner at Peptide I doses of 0.025, 0.05, 0.1 mg/kg, and […], respectively (single dose per cohort). […] As such, the study was terminated.

[3] = Pharmacokinetic studies in rats; format: in vivo
[4] = test system: erythropoiesis; test: Pharmacology studies in animals (erythropoiesis); format: in vivo, mice, rats, dogs, rabbits and monkeys
[5] = Pharmacokinetic studies in dogs; format: in vivo
[6] = Phase 1 study in normal healthy volunteers: pharmacokinetics; format: in vivo, human
Description: as §1, §2
In the 0.025 mg/kg dose group, Peptide I concentration peaked between 5 and 15 minutes, while tmax approached 1 hour for the 0.1 mg/kg dose.

[7] = Pharmacokinetic studies in rats, dogs and monkeys (general statements); format: in vivo
[8] = test system: erythropoiesis; test: Phase 1 study in normal healthy volunteers: pharmacodynamics; format: in vivo, human
Description: as §1, §2

[9] = target: T1, Recombinant Human EPO R/Fc Chimera (human, UniProt P19235 25-250); test: radioligand competition; competitor: 125I-EPO; EPO R/Fc chimera 100 pg/tube, Protein-G Sepharose pull-down, gamma counting
T1 construct: extracellular domain; Bought: R&D Systems, catalog number 963-ER; also called recombinant EPOr extracellular domain fused to the Fc portion of human IgG1; recombinant erythropoietin receptor; not shown: Fc portion of human IgG1
T1 sequence (looked up): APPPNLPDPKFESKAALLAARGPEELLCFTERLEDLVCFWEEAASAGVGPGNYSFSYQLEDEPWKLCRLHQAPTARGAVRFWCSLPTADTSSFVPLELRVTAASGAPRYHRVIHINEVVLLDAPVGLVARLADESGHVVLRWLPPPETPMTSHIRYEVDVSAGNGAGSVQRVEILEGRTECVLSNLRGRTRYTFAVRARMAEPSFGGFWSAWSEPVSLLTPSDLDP

[10] = target: T2, recombinant EPO-R produced in Chinese Hamster Ovary cells as a fusion protein to a portion of the human … (human, UniProt P19235 25-250); test: AlphaQuest bead proximity competition; competitor: biotinylated tracer peptide SEQ ID NO: 4 (30 nM) on streptavidin donor beads, EPO-R fusion on acceptor beads
T2 sequence (looked up): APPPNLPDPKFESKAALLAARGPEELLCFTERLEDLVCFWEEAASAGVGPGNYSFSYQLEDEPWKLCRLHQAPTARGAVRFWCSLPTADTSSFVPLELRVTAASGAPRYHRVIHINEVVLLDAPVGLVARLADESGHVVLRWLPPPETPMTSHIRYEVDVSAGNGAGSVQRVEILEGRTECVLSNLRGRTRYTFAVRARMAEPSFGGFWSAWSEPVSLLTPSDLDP

[11] = five-sixth nephrectomy rats, IV 9.87 mg/kg

Peptide IV: peptide dimer of SEQ ID NO: 1 monomers (AcG)GLYACHMGPIT(1-nal)VCQPLRK (Ac-GGLYACHMGPIT[1Nal]VCQPLRK; disulfide 6-15 (inferred); not fully specified (residue 1); printed as (AcG)GLYACHMGPIT(1-nal)VCQPLRK; also: homodimer joined through a branched tertiary amide linker on the Lys20 side chain, PEG carried on the linker)
EC90 ([1]; Table 4): 6.2 nM

peptide dimer of SEQ ID NO: 3 monomers (AcG)GLYACHMGPIT(1-nal)VCQPLR(MeG) [Peptide III] (Ac-GGLYACHMGPIT[1Nal]VCQPLR[Sar]; disulfide 6-15 (inferred); not fully specified (residue 1); printed as (AcG)GLYACHMGPIT(1-nal)VCQPLR(MeG); also: homodimer, C-termini joined to the alpha- and epsilon-amino groups of a lysine linker, spacer and PEG on the linker)
EC90 ([1]; Table 2): 2.7 nM

peptide dimer of SEQ ID NO: 3 monomers (AcG)GLYACHMGPIT(1-nal)VCQPLR(MeG) [Peptide II] (Ac-GGLYACHMGPIT[1Nal]VCQPLR[Sar]; disulfide 6-15 (inferred); not fully specified (residue 1); printed as (AcG)GLYACHMGPIT(1-nal)VCQPLR(MeG); also: homodimer, C-termini joined to the alpha- and epsilon-amino groups of a lysine linker, spacer and PEG on the linker)
EC90 ([1]; Table 2): 2.2 nM

peptide dimer of SEQ ID NO: 2 monomers (AcG)GLYACHMGPIT(1-nal)VCQPLR(MeG)K; a fully synthetic EPO receptor agonist (Ac-GGLYACHMGPIT[1Nal]VCQPLR[Sar]K; disulfide 6-15 (inferred); not fully specified (residue 1); printed as (AcG)GLYACHMGPIT(1-nal)VCQPLR(MeG)K; also: homodimer joined through a branched tertiary amide linker on the Lys21 side chain, PEG carried on the linker) [Peptide I]
number of adverse events ([2]; Peptide I group): 22 | AEs considered probably not related to the study drug ([2]; Peptide I recipients): 15/22 | Serious Adverse Events or withdrawals due to an AE ([2]; human, in vivo): no Serious Adverse Events (SAEs) or withdrawals from the study due to an AE | changes in vital signs, ECGs or laboratory values ([2]; human, in vivo): no clinically significant changes | subjects who developed antibodies specific to Peptide I ([2]; human, in vivo): None | overall safety and tolerability ([2]; single IV doses of 0.025, 0.05 or 0.1 mg/kg): safe and well tolerated | abdominal pain ([2]; subjects dosed with Peptide I): 10.0% | headache ([2]; subjects dosed with Peptide I): 20.0% | nasopharyngitis ([2]; subjects dosed with Peptide I): 10.0% | nausea ([2]; subjects dosed with Peptide I): 10.0% | subjects who experienced adverse events ([2]; subjects receiving Peptide I): 11 of 20 | clearance [3, 11]: 0.763 mL/h/kg | t1/2 [3, 11]: approximately 48 hours | clearance ([3]; normocythemic rats): 1.44 mL/h/kg | Elimination half life (t1/2) ([3]; rats): 21.5 to 30.7 h | rise in reticulocytes and RBCs as measured by hemoglobin levels ([4]; rats and monkeys): dose proportional | stimulation of erythropoiesis ([4]; single or repeat dose, mice, rats (normocythemic and nephrectomized), dogs, rabbits, monkeys): potent stimulator of erythropoiesis with dose-dependent activity | Elimination half life (t1/2) [5]: 73.7 h | Plasma clearance, geometric mean ([6]; 0.025 mg/kg): 78.0 mL/h | Volume of distribution, mean ([6]; 0.025 mg/kg): 2165 mL | half-life, mean ([6]; 0.025 mg/kg): 19.2 h | half-life, range ([6]; 0.025 mg/kg): 16.7 to 21.9 h | plasma concentrations quantifiable (>25 ng/mL) up to ([6]; 0.025 mg/kg): up to 96 hours | Plasma clearance, geometric mean ([6]; 0.05 mg/kg): 70.7 mL/h | Volume of distribution, mean ([6]; 0.05 mg/kg): 1903 mL | half-life, mean ([6]; 0.05 mg/kg): 18.7 h | half-life, range ([6]; 0.05 mg/kg): 15.3 to 25.1 h | plasma concentrations quantifiable (>25 ng/mL) up to ([6]; 0.05 mg/kg): ≤ 5 days | Plasma clearance, geometric mean ([6]; 0.1 mg/kg): 59.2 mL/h | Volume of distribution, mean ([6]; 0.1 mg/kg): 2010 mL | half-life, mean ([6]; 0.1 mg/kg): 23.5 h | half-life, range ([6]; 0.1 mg/kg): 17.7 to 33.1 h | plasma concentrations quantifiable (>25 ng/mL) up to ([6]; 0.1 mg/kg): ≤ 7 days | tmax ([6]; 0.1 mg/kg): ~1 h | AUC(0-infinity) relationship with dose ([6]; dose normalized, ANOVA): non-linearity at the highest dose | Cmax relationship with dose ([6]; dose normalized, ANOVA): linear relationship with dose | plasma concentration at which metabolic/elimination processes saturate ([6]; human, in vivo): > 400 ng/mL | plasma persistence ([7]; in comparison to currently marketed rHuEPO products): sustained plasma persistence | Biodistribution ([7]; in vivo): primarily to the plasma fraction | average hemoglobin levels at Day 42 ([8]; 0.1 mg/kg): returned to baseline | average maximum increase from baseline in hemoglobin ([8]; 0.1 mg/kg, 10 recipients): 1.36 ± 0.39 g/dL | difference in change from baseline hemoglobin versus placebo ([8]; 0.1 mg/kg, at Day 42 as throughout the study): ≥ 0.5 g/dL | time of maximum reticulocyte counts postdose ([8]; all dose cohorts): approximately 7 days | hemoglobin response and change from baseline (mean and maximum) ([8]; over 28 days post-dose): dose-dependent increases | Reticulocyte count (absolute number and percent) ([8]; single IV 0.025, 0.05, 0.1 mg/kg): dose-dependent increase | PAD associated with at least a 1.0 g/dL increase in hemoglobin ([8]; single IV dose, NHV): 0.1 mg/kg | Serum EPO levels ([8]; with increasing dose): transiently decreased | EC90 ([1]; Table 6): 3 nM

B1: Peptide I (SEQ ID NO: 2) (peptide)
peptide: Ac-GGLYACHMGPIT[1Nal]VCQPLR[Sar]K
modifications: disulfide 6-15; not fully specified (residue 21); printed as (AcG)GLYACHMGPIT(1-nal)VCQPLR(MeG)K; also: PEGylated homodimer, second copy joined via the branched linker on K21 epsilon-amine, linker, PEG size and linkage not given here
IC50 [9]: 111 nM

B2: Peptide II (SEQ ID NO: 3) (peptide)
peptide: Ac-GGLYACHMGPIT[1Nal]VCQPLR[Sar]
modifications: disulfide 6-15; not fully specified (C-terminus); printed as (AcG)GLYACHMGPIT(1-nal)VCQPLR(MeG); also: homodimer of two monomers, C-termini joined to alpha- and epsilon-amino groups of a lysine linker with spacer and PEG
IC50 [10]: 0.11 nM
